Data as given in patent publication US11771829B2, “Systems and methods for liquid injection” (Massachusetts Institute of Technology, priority 2019, dated 2023).

How the values were obtained:
[1] = In vivo swine pharmacokinetics after L-SOMA, subcutaneous or endoscopic gavage dosing
Procedure: In vivo swine experiments were performed in which L-SOMA devices loaded with either an inactivated GLP-1 receptor agonist or fast acting insulin were prepared. L-SOMA dosing experiments were compared to subcutaneous dosing experiments and experiments where swine were dosed with the liquid formulation into the stomach lumen. Using an endoscope, L-SOMA devices were placed into the stomachs of swine and allowed to independently actuate. After 2 hours the devices were removed from the animal. Time 0 corresponds to the time at which the device was placed in the stomach and not the time that the device actuated. The swine dosed were partially fasted but contained a layer of gastric fluid and food approximately the same height as the L-SOMA capsule.
(§1) L-SOMA dosings were compared to subcutaneous or intramuscular dosings as positive controls. Using an endoscope, we placed L-SOMA devices into the stomachs of swine and allowed them to independently actuate. After 2 hours the devices were removed from the animal.
Insulin and GLP-1 generally have limited ability to traverse the stomach lining for systemic uptake when administered without a permeation enhancer or physical permeation enhancing device.

[2] = Liquid formulation stability, two weeks at 40° C. and 75% relative humidity; type: physicochemical
Procedure: FIGS. 53A-53B show liquid formulation stability, according to one set of embodiments. Human Insulin (HI) and Semaglutide (Sema) formulations were placed inside of either an L-SOMA or a glass vial apparatus and were subjected to a 40° C. and 75% relative humidity environment for two weeks. (a) Purity loss and (b) high molecular weight protein (HMWP) formation were then measured. (Error=SD, n=3 device replicates, **P<0.01, ***P<0.001).
Additionally, the purity loss for the liquid formulation was higher than the purity loss for the solid formulation we previously reported using in the SOMA system. Optimization of the L-SOMA storage system and loaded liquid formulation will be required to ensure long term stability of the filled drug.

blood glucose = assay: Blood glucose in swine after dosing; type: in vivo
Procedure: as §1

swine stomach = assay: Histology of swine stomach after L-SOMA injection; type: in vivo; settings: swine stomach after L-SOMA epinephrine injection
Procedure: as §1

heart rate = settings: swine; 0.24 mg; both intramuscular injection and L-SOMA groups
Procedure: as §1

For adalimumab, the “uptake after endoscopic gavage (negative control)” value ([1]; in vivo) was “negligible uptake” and the “drug in blood plasma after dosing” value ([1]; in vivo, sc) was “at least 3 days”.
In the case of semaglutide, the “high molecular weight protein formation, L-SOMA system versus glass vial system” value [2] is reported as “greater” and the “purity loss, L-SOMA system versus glass vial system” value [2] is reported as “greater”.
For “recombinant human insulin: recombinant human insulin, 1 mg liquid dose”, the hypoglycemic onset (blood glucose; insulin 1 mg, L-SOMA (FIG. 47B) and subcutaneous (FIG. 47F)) was “immediate hypoglycemic onset”, the “bioavailability, range” value ([1]; swine, L-SOMA dosed, 1 mg, two hour sampling period, n=8) was 25%-81% and the “bioavailability, range” value ([1]; swine, dosed subcutaneously, insulin, n=3) was 50.8%-66.2%. For the same compound, the “high molecular weight protein formation, L-SOMA system versus glass vial system” value [2] was “greater” and the “purity loss, L-SOMA system versus glass vial system” value [2] was “greater”.
For `CNC[C@H](O)c1ccc(O)c(O)c1` [epinephrine], the blood glucose change (blood glucose; 0.24 mg, both intramuscular injection and L-SOMA groups) was “abrupt rise”, the “uptake after endoscopic gavage (negative control)” value ([1]; in vivo) was “negligible uptake” and the “plasma exposure of drug observed after administration” value ([1]; swine, in vivo) was no more than 15 min. For the same compound, the “H&E staining: necrosis or adverse effects elicited by the drug” value (swine stomach) was “no evidence of necrosis or adverse effects” and the heart rate change (heart rate) was “abrupt rise”.
